Data: the supplement of paper PMC7877785
± gives the uncertainty stated by the source.

Assay: self-splicing fitness, log relative to wild type (ln ratio); higher = more splicing; Tetrahymena group I intron in knt gene, E. coli kanamycin selection, DiMSum; sequences stand for … in CUCUCU…GGAGGGAAAAGUUAUCAGGCAUGCACCUGGUAGCUAGUCUUUAAACCAAUAGAUUGCAUCGGUUUAAAAGGCAAGACCGUCAAAUUGCGGGAAAGGGGUCAACAGCCGUUCAGUACCAAGUCUCAGGGGAAACUUUGAGAUGGCCUUGCAAAGGGUAUGGUAAUAAGCUGACGGACAUGGUCCUAACCACGCAGCCAAGUCCUAAGUCAACAGAUCUUCUGUUGAUAUGGAUGCAGUUCACAGACUAAAUGUCGGUCGGGGAAGAUGUAUUCUUCUCAUAAGAUAUAGUCGGACCUCUCCUUAAUGGGAGCUAGCGGAUGAAGUGAUGCAACACUGGAGCCGCUGGGAACUAAUUUGUAUGCGAAAGUAUAUUGAUUAGUUUUGGAGUACUCGUGGUCG
In short: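 A randomised library covering all eight P1ex-region intron nucleotides was built with the intron in the knt kanamycin-resistance gene on pET-22b(+) and held in E. coli BL21(DE3). Cells were grown overnight at 37°C or 30°C on LB agar, with or without 25 μg/mL kanamycin, plus 100 μg/mL carbenicillin, 50 μM IPTG and 0.2% rhamnose, and pooled colonies were amplicon-sequenced on an Illumina HiSeq 2500. DiMSum fitness is the error-weighted combination of wild-type-normalised replicate fold changes, kanamycin versus none.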

Sequence	self-splicing fitness (ln) (30 °C)	self-splicing fitness (ln) (37 °C)
GCCAAGCAAUAUUACGACUA	-1.82 ± 0.17	-1.77 ± 0.16
GCCAAGCAAUAUUACGAGAC	-2.73 ± 0.18	-0.746 ± 0.12
GCCAAGCAAUAUUACGAGGC	-2.66 ± 0.16	-1.93 ± 0.21
GCCAAGCAAUAUUACGAUGC	-1.7 ± 0.09	-0.188 ± 0.11
GCCAAGCAAUAUUACGCAAU	-1.35 ± 0.075	-0.812 ± 0.082
GCCAAGCAAUAUUACGCCGA	-1.64 ± 0.15	-0.102 ± 0.11
GCCAAGCAAUAUUACGCCGC	-2.92 ± 0.31	-1.02 ± 0.28
GCCAAGCAAUAUUACGCGCC	-3.75 ± 0.27	-2.56 ± 0.32
GCCAAGCAAUAUUACGGACA	-1.12 ± 0.11	0.31 ± 0.093
GCCAAGCAAUAUUACGGCAA	-2.23 ± 0.17	-1.06 ± 0.15
GCCAAGCAAUAUUACGGCCC	-2.13 ± 0.2	-1.57 ± 0.22
GCCAAGCAAUAUUACGGCUU	-5.36 ± 0.34	-3.31 ± 0.19
GCCAAGCAAUAUUACGGGUC	-3.34 ± 0.18	-2.8 ± 0.27
GCCAAGCAAUAUUACGGUGC	-3.11 ± 0.24	-2.14 ± 0.21
GCCAAGCAAUAUUACGGUUU	-1.08 ± 0.047	-0.943 ± 0.07
GCCAAGCAAUAUUACGUAUU	-3.29 ± 0.16	-2.28 ± 0.14
GCCAAGCAAUAUUACGUCGU	-0.691 ± 0.058	-0.359 ± 0.066
GCCAAGCAAUAUUACGUCUU	-3.28 ± 0.2	-2.38 ± 0.16
GCCAAGCAAUAUUACGUGAG	-1.17 ± 0.071	-0.535 ± 0.084
GCCAAGCAAUAUUACGUGCU	-3.04 ± 0.11	-1.56 ± 0.092
GCCAAGCAAUAUUACGUGUC	-1.62 ± 0.06	-0.848 ± 0.075
GCCAAGCAAUAUUACGUUUG	-3.38 ± 0.16	-2.61 ± 0.21
GCCCAGCAAUAUUACGAAAA	-1.7 ± 0.1	-1.87 ± 0.12
GCCCAGCAAUAUUACGAAAC	-1.34 ± 0.058	-0.851 ± 0.078
GCCCAGCAAUAUUACGAACU	-1.26 ± 0.14	-1 ± 0.14
GCCCAGCAAUAUUACGAAUA	-1.62 ± 0.1	-1.19 ± 0.12

Sequence	self-splicing fitness (ln) (30 °C)	self-splicing fitness (ln) (37 °C)
GCCCAGCAAUAUUACGAAUC	-0.771 ± 0.083	-0.457 ± 0.086
GCCCAGCAAUAUUACGACCA	-1.44 ± 0.19	-0.385 ± 0.23
GCCCAGCAAUAUUACGACUA	-1.54 ± 0.1	-0.508 ± 0.11
GCCCAGCAAUAUUACGACUU	-1.45 ± 0.095	-0.824 ± 0.1
GCCCAGCAAUAUUACGAGGG	-4 ± 0.18	-2.74 ± 0.21
GCCCAGCAAUAUUACGAGUC	-0.477 ± 0.039	-0.126 ± 0.059
GCCCAGCAAUAUUACGAUAU	-1.54 ± 0.077	-1.31 ± 0.1
GCCCAGCAAUAUUACGCGGC	-4.94 ± 0.39	-2.51 ± 0.24
GCCCAGCAAUAUUACGCGUA	-0.753 ± 0.061	-0.155 ± 0.064
GCCCAGCAAUAUUACGGAUG	-2.15 ± 0.075	-1.49 ± 0.092
GCCCAGCAAUAUUACGGCAC	-1.45 ± 0.067	-0.0437 ± 0.094
GCCCAGCAAUAUUACGGCGG	-3.37 ± 0.16	-1.93 ± 0.17
GCCCAGCAAUAUUACGGGCA	-2.35 ± 0.2	-2.69 ± 0.21
GCCCAGCAAUAUUACGGGCU	-3.75 ± 0.16	-2.81 ± 0.15
GCCCAGCAAUAUUACGGUAA	-0.279 ± 0.06	0.44 ± 0.068
GCCCAGCAAUAUUACGGUGU	-2.51 ± 0.067	-1.27 ± 0.076
GCCCAGCAAUAUUACGUACC	-1.05 ± 0.12	0.0161 ± 0.17
GCCCAGCAAUAUUACGUAGA	-0.69 ± 0.052	0.0571 ± 0.064
GCCCAGCAAUAUUACGUAUU	-2.02 ± 0.066	-0.786 ± 0.074
GCCCAGCAAUAUUACGUCCC	-1.49 ± 0.17	0.384 ± 0.17
GCCCAGCAAUAUUACGUCGC	-1.66 ± 0.095	-0.355 ± 0.092
GCCCAGCAAUAUUACGUGAG	-0.944 ± 0.043	-0.161 ± 0.056
GCCCAGCAAUAUUACGUGCA	-1.47 ± 0.083	-0.691 ± 0.083
GCCCAGCAAUAUUACGUGCG	-3.42 ± 0.21	-1.71 ± 0.17
GCCGAGCAAUAUUACGAACC	-0.807 ± 0.22	0.455 ± 0.41
GCCGAGCAAUAUUACGAAUA		-1.51 ± 0.47

Sequence	self-splicing fitness (ln) (30 °C)	self-splicing fitness (ln) (37 °C)
GCCGAGCAAUAUUACGACAC	-1.4 ± 0.12	-0.338 ± 0.18
GCCGAGCAAUAUUACGACAG	-1.9 ± 0.22	-2.16 ± 0.23
GCCGAGCAAUAUUACGACCU	-2.33 ± 0.3	-1.54 ± 0.36
GCCGAGCAAUAUUACGAGAU	-2.65 ± 0.19	-1.66 ± 0.2
GCCGAGCAAUAUUACGAUUG	-2.48 ± 0.41	-2.24 ± 0.47
GCCGAGCAAUAUUACGCACC	-1.96 ± 0.23	-0.483 ± 0.21
GCCGAGCAAUAUUACGCCUU	-3.44 ± 0.27	-2 ± 0.36
GCCGAGCAAUAUUACGCGAU	-2.66 ± 0.2	-3.09 ± 0.37
GCCGAGCAAUAUUACGCGCA	-1.42 ± 0.19	-0.221 ± 0.14
GCCGAGCAAUAUUACGCGGU	-3.47 ± 0.18	-3.36 ± 0.42
GCCGAGCAAUAUUACGCGUA	-0.983 ± 0.069	-0.591 ± 0.066
GCCGAGCAAUAUUACGCGUU	-1.62 ± 0.076	-0.778 ± 0.095
GCCGAGCAAUAUUACGCUGA	-1.88 ± 0.17	-0.952 ± 0.13
GCCGAGCAAUAUUACGGAUG	-1.38 ± 0.06	-0.937 ± 0.072
GCCGAGCAAUAUUACGGCCA	-1.6 ± 0.11	-1.52 ± 0.12
GCCGAGCAAUAUUACGGGAG	-3.67 ± 0.24	-2.18 ± 0.24
GCCGAGCAAUAUUACGGUGG	-3.52 ± 0.16	-3.27 ± 0.23
GCCGAGCAAUAUUACGUCGU	-0.646 ± 0.081	-0.197 ± 0.1
GCCGAGCAAUAUUACGUGAA	-1.74 ± 0.076	-0.417 ± 0.092
GCCUAGCAAUAUUACGAAGG	-3.05 ± 0.17	-2.65 ± 0.3
GCCUAGCAAUAUUACGACAC	-1.06 ± 0.21	-0.38 ± 0.27
GCCUAGCAAUAUUACGACAU	-2.109 ± 0.015	-1.02 ± 0.033
GCCUAGCAAUAUUACGAGCU	-1.03 ± 0.14	-1.51 ± 0.14
GCCUAGCAAUAUUACGAUAC	-2.39 ± 0.11	-0.543 ± 0.1
